Experimental data as given in patent US20220227882A1 (TRUSTEES OF TUFTS COLLEGE, published 2022).

T1: Recombinant human ADAM8 (rHuADAM8) ectodomain protein (aa 17-497), ACRO Biosystems AD8-H5223 (human, UniProt P78325 17-497)
T1 construct: Bought protein made in HEK293 cells; The protein clips off its own prodomain (aa 17-191); also called rhADAM8; immunogen
T1 sequence: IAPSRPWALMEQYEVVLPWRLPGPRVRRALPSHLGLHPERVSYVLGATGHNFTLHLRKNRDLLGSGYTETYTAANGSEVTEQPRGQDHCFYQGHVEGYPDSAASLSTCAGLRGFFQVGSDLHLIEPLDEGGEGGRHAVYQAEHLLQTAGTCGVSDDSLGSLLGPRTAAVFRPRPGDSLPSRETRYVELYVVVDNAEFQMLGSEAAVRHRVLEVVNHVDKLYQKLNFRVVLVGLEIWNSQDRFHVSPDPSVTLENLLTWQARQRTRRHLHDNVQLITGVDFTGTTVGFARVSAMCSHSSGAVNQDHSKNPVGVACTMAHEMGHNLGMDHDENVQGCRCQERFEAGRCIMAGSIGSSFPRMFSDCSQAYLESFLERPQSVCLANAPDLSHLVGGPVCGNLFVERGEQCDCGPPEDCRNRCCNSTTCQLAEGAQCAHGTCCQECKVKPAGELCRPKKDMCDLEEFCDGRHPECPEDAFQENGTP

T2: Recombinant human ADAM12 (Acro Biosystems, AD2-H5228) (human, UniProt O43184 208-708)
T2 sequence (looked up): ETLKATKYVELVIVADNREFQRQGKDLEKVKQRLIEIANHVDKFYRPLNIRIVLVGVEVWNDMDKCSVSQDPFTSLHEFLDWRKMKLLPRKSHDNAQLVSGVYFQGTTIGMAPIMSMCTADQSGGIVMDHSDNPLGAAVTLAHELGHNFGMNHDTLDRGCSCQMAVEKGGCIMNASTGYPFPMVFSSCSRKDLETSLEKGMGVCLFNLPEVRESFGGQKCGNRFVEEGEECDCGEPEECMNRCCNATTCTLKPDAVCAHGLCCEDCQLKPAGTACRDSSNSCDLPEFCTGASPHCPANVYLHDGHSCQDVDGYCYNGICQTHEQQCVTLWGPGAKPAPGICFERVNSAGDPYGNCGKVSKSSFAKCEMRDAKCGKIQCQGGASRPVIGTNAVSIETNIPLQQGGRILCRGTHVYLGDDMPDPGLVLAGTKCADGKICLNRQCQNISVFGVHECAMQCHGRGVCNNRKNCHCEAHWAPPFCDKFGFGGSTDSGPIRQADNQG

T3: Full-length human ADAM8 on cells (HEK293-ADAM8 stable or transfected cells); also endogenous ADAM8 of breast … (human, UniProt P78325 17-824)
T3 construct: On cells the proform, the active form and the remnant form can all be present; also called native ADAM8; HEK293-A8
T3 sequence: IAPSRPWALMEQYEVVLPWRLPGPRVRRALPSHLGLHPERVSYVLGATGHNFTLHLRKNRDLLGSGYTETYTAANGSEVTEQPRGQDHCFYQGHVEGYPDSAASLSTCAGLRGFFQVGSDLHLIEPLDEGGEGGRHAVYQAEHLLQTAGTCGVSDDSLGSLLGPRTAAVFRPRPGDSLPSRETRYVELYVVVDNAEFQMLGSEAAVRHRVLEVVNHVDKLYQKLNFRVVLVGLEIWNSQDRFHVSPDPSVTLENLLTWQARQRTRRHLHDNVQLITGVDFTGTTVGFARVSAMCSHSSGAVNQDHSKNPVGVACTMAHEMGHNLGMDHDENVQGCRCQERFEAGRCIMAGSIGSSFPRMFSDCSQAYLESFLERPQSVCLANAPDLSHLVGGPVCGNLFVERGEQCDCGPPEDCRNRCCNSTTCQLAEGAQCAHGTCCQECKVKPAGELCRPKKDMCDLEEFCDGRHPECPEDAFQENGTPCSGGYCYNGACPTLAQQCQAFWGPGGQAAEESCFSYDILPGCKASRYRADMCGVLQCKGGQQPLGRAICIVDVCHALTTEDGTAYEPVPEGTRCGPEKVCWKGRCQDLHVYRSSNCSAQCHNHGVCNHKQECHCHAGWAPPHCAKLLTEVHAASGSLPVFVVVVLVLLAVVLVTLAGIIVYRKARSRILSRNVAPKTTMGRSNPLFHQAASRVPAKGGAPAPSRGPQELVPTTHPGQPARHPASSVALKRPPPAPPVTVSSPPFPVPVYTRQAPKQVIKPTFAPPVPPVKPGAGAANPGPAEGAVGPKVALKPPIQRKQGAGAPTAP

B1: ADP3 (antibody, IgG1, V domains shown)
VH: EVKLEESGGGLVQPGGSMKLSCAASGFTFSDAWMDWVRQSPEKGLEWVAEIRGKVNNLATYYVESVKGRFTISRDDSKSSVYLQMNSLRAEDTGIYYCLGRYDATYAMDYWGQGTSVTVSS
VL: DVVMTQTPLSLPVSLGDQASISCRSSQSLVHSDGNTYLHWYLQKPGQSPKLLIYKLSNRFSGVPDRFSGSGSGTDFTLKISRVEAEDLGVYFCSQSTHVPWTFGGGTKLEIK
B2: ADP13 (antibody, IgG1, V domains shown)
VH: EVQLQQSGPEMVKPGTSVKISCKASGYTFTDYYINWVKQSHGKSLEWIGDISPNIGGATYNPKFKGKAILTVDKSARTAYMELRSLTSEDSAVYCCTRGGSSYPYFYAMDYWGQGTSVTVSS
VL: DIVMSQSPSSLAVSVGEKVTMSCKSSQSLLYSSNQKKYLAWYQQKPGQSPKLLIYWASTRESGVPDRFTGSGSGTDFTLTISSVKAEDLAVYYCQQFYSYPYTFGGGTKLEINR
notes: also called mADP13; mouse ADP13
B3: ADP2 (antibody, V domains shown)
VH: EVKLVESGGGLVQPGGSLSLSCAASGFSFPDYYMSWVRQPPGKALEWLGFIRDSANGYTTEYIASVKGRFTFSRDNSQSILYLQMNALRAEDSATYYCARYSRYYGMDYWGQGTSVTVSS
VL: SIVMTQTPKILLVSAGDRVTITCKASQTVNYDVAWYQQKPGQSPKPVIYFASNRYTGVPDRFTGSGFGTDFTFTISTVQAEDLAVYFCQQDYSAPWTFGGGTKLEIK
notes: also called mADP2; mouse ADP2

Tests used:
[1] = molecular target: T1, Recombinant human ADAM8 (rHuADAM8) …; assay: ELISA, coated recombinant ADAM8
[2] = molecular target: T2, Recombinant human ADAM12 (Acro …); assay: ELISA, coated recombinant ADAM12
[3] = molecular target: T3, Full-length human ADAM8 on cells …; assay: FACS, HEK293-ADAM8 cells, antibody 1 µg/ml
[4] = molecular target: T3, Full-length human ADAM8 on cells …; assay: FACS, HEK293-ADAM8 cells, antibody 10 µg/ml
[5] = molecular target: T3, Full-length human ADAM8 on cells …; assay: FACS, HEK293-ADAM8 cells, antibody 0.1 µg/ml
[6] = molecular target: T1, Recombinant human ADAM8 (rHuADAM8) …; assay: Biacore SPR, ADP captured by anti-mouse Fc, rHuADAM8 as analyte
Description: For Biacore assays, each ADP was used as the ligand in a multiple cycle kinetics method performed on a Biacore™ T200 surface plasmon resonance system (GE Healthcare Life Sciences) machine. ADP proteins were captured using anti-mouse Fc IgG attached to a dextran matrix, and rHuADAM8 (Acro Biosystems, AD8-H5223) added as the analyte at concentrations ranging from 3.75 nM to 200 nM. HBS-EP+ (10 mM HEPES, 0.15 M NaCl, 3 mM EDTA, 0.05% Surfactant P20) running buffer was passed at a flow rate of 30 μl/min and antigen injected at 30 μl/min. The association and dissociation phases were carried out for 180 s and 600 s, respectively. Surface regeneration was performed for 30 s at 30 μl/min of Glycine pH 1.5. Values for association rate constant (kₐ), dissociation rate constant (kd) and equilibrium dissociation constant (KD) were calculated through the Biacore™ T200 Software.

| Binder | OD 450nm [1] [OD450nm] | OD 450nm [2] [OD450nm] | MFI [3] [MFI] | MFI [4] [MFI] | MFI [5] [MFI] | koff [6] [s⁻¹] | kon [6] [M⁻¹ s⁻¹] | binding result [2] |
| --- | --- | --- | --- | --- | --- | --- | --- | --- |
| B1 | 2.31 | 0.16 | 96.5 | 86.9 | 51.8 | 0.000634 | 34700 | – |
| B2 | 2.64 | 0.12 | 21.1 | 62.2 | 7.1 | 4.6e-05 | 35400 | no binding (tested: 1 µg/ml) |
| B3 | 2.76 | 0.14 | 156 | 158 | 58.4 | 0.000299 | 89500 | no binding (tested: 1 µg/ml) |
